In the DeepSol protein solubility set:

Experiment: soluble on expression in E. coli; label from the status in PepcDB or PDB records

Row | Sequence | soluble on expression in E. coli
1 | MIWNETIECMDRESLRKIQSIRLKKIVDYVYHNTPFYRKKMQEMGITPDDINTIDDIVKLPFTTKHDLRDNYPFGLCAVPMSQIVRIHASSGTTGKPTVVGYTRKDLSSWAECISRAFTAYGAGRSDIFQVSYGYGLFTGGLGAHAGAENIGASVIPMSSGNTEKQITLMHDFGSTVLCCTPSYALYLADAIKDSGYPREEFQLKVGALGAEPWTENMRHEIEEKLGIKAYDIYGLSEIAGPGVGYECECQHGTHLNEDHYFPEIIDPNTLQPVEPGQTGELVFTHLTKEGMPLLRYRTRDLTALHYDKCSCGRTLVRMDRILGRSDDMLIIRGVNVFPTQIESVILEMEEFEPHYLLIVGRENNTDTMELQVEVRPDFYSDEINRMLALKKKLASRLQSVLGLGVNVKLVEPRSIERSVGKAKRVIDNRKI | not soluble
2 | MSVKLRLPQSAYPIFDRIEEMAWARHYQQIVREEKETELADDLEKGLPQHLFESLCIDHLQRHGANKQAISHAFDDDVEFQERMAEHIRYMAETIAHHQVDIDLEDLEHHHHHH | not soluble
3 | MGSSHHHHHHSQDPNSLEVLFQGPMAGGRDRGDLAARQLVFLLPEHLKDASKKKKKSSLLFVKLANPHSGEGATYLIDMCLQQLFEIKVFKEKHHSWFINQSVQSGGLLHFATPMDPLFLLLHYLLKAGKEGKYQPLDQVVVDDTFPDCTLLLRFPELEKSLRHVTEEKEVNSKKYYKYSSEKTLKWLEKKVNQTVVALKANNVNVGARVQSSAYFSGGQVSRDKEEDYVRYAHGLISDYIPKELSDDLSKFLKLPEPPASLPNPPSKKLKLSDEPVEAKEDYTKFNTKDLKTGKKNSKMTAAQKALAKVDKSGMKSIDAFFGAKNKKTGKI | soluble
4 | MSKRPVIESEKPAWHDEDDDNMVVAVPKKVKMTMRVELKRTTDEEHGELDSKEYVGRLQEAFRKRHGGTPKWAKAAAGDEEEGSLLKTAAGYLAKDVNLPKTTIHTTLIKDFNIGHRYTRGITVVKFHKTRPVLIVADQGGNVQLFKVSREVKKDRFLQSANFSKFPIDSLEIADKGHSVICSSSRKEYLMQYNMETREVTQLKPPNTVPKQGIRLFAISHDSQFLAIAGHNSHIYVLHATSMEHITTISLPANASEIKFFPSHSREIWIICETGQIVIANIGLPGTKSSQHTFTDDGAVHGTTLAISQHGDYFATGSDTGIVNVYSGNDCRNSTNPRPLFNVSNLVTAVSSIAFNSDAQLMAICSNVKDNHLRLVHVASQTTFKNFPERNGKVTHARCVEFSPNGGYMAVGNDDGRLHVFEIHHFTDY | not soluble
5 | MEFRRKCSRSAMRHKSQKRRAMPNQDVEKVNEIFKFPRISEQALMDGILKISCIASFKNGNQRCFEGSIYVKELCGLRNGTKVFKFIELANIRLYSIDEEDEIPEYDWIISV | not soluble
6 | MKRLLLSAAILSSMALFNVNAQELKTSADMKGSFKKNVVLEVFTAEWCGYCPGGKERIAKAIEMLDDEYKERVFQTFVHYNDGISKKWPRVGQLFIALDQTLGIPGFPTFSVCRMEKKGENLSIGAPIAIKNKIMKGFGDGTAPAEVNLKLTKGATPEDVCTATFTGKVDADLIGKPLMLTAYVLKNNMKPINPQNGAGDGYLHQHTVLMILSTDVKGDALNIAADGSFTIKKEFKLDGFEIKDTDVLAFVHHPMSNAENHSIINAGQESLDKAEPTATEQIVATPSVKAYVQNGKIVVEEEYSKMEVFNATGQLVKNESLVPGVYVVRITANGVMYFLKVLVPMAGDPLEHHHHHH | soluble
7 | MKIEELIAIRRDLHRIPELGFQEFKTQQYLLNVLEQYPQDRIEIEKWRTGLFVKVNGTAPEKMLAYRADIDALSIEEQTGLPFASEHHGNMHACGHDLHMTIALGIIDHFVHHPVKHDLLFLFQPAEEGPGGAEPMLESDVLKKWQPDFITALHIAPELPVGTIATKSGLLFANTSELVIDLEGKGGHAAYPHLAEDMVVAASTLVTQLQTIISRNTDPLDSAVITVGTITGGSAQNIIAETAHLEGTIRTLSEESMKQVKERIEDVVKGIEIGFRCKGKVTYPSVYHQVYNTSGLTEEFMSFVAEHQLATVIEAKEAMTGEDFGYMLKKYPGFMFWLGADSEHGLHHAKLNPDENAIETAVHVMTGYFSVYAN | not soluble
8 | MEFAAENEGKSGGGLHSVAEGVRLSPEPGREGVRDLAGAEEFGGGEEGTGLTGIKEIGDGEEGSGQRPEEIPMDLTVVKQEIIDWPGTEGRLAGQWVEQEVEDRPEVKDENAGVLEVKQETDSSLVVKEAKVGEPEVKEEKVKEEVMDWSEVKEEKDNLEIKQEEKFVGQCIKEELMHGECVKEEKDFLKKEIVDDTKVKEEPPINHPVGCKRKLAMSRCETCGTEEAKYRCPRCMRYSCSLPCVKKHKAELTCNGVRDKTAYISIQQFTEMNLLSDYRFLEDVARTADHISRDAFLKRPISNKYMYFMKNRARRQGINLKLLPNGFTKRKENSTFFDKKKQQFCWHVKLQFPQSQAEYIEKRVPDDKTINEILKPYIDPEKSDPVIRQRLKAYIRSQTGVQILMKIEYMQQNLVRYYELDPYKSLLDNLRNKVIIEYPTLHVVLKGSNNDMKVLHQVKSESTKNVGNEN | soluble
9 | MSLSALIINEYREQGGTAISFPEDISRARQKLFRFLDNRFDSDQYRENVRELTPAIMAVLPVEFRTRLAPQNDTMSLIASAMKECSEAKQAVLLNAPEHQKMKEVSEGIASLFRLMPEQVGPLMTMVTSMLGVIEGHHHHHH | not soluble
10 | MAHHHHHHMKQNGGRETPDGVRYPHIALDVLGQCHSSACVELGNTRVICAVHHPQQLVDEYRGSRGRVACTVRRSASAGSHAAGSAQPSVVTPEKDMSLALEGVAEEVVILEKIPQLLVEVVVEILAEDGGVWDAVATSMSAALVSGGFEMYDLFSACGSALLSDGAVVLDPDAAEESNAQASALVCLMLNSGDICYARHQGSCEPGTVLELVSSAMKGCLSRKSAITTQLINHPIL | not soluble
11 | SNAMNPIEFWFDFSSGYAFFAAQRIEALAAELGRTVLWRPYMLGAAFSVTGARGLSSTPLKRDYAQRDWARIARQRGLTFRPPADHPHVALAATRAFYWIEAQSPDAATAFAQRVFDLYFSDRLDTASPEAVSRLGPEVGLEPEALLAGIADPALKETVRKIGEDAVARGIFGSPFFLVDDEPFWGWDRMEMMAEWIRTGGW | soluble
12 | MRSRPTEGNLLVSIGIPFLNPGPYLDLAVRSVFAQTYLNWELILVDDGSTDGSYERAVAIQDPRVRVLRDGQNKGLPARLNEIVRLAKGELVARMDADDAMHPLRLEKQVGFLQANPELDGVTTGAYLIDAEDRPIALLPGRQPSAQEVLARGGFLHPSLLARKSWFEAHPYSLDYPRAEDRELFVRTFKTSRLHVLSEPLYFYRWFGVPRGKTLRIGYRSERKVMWKYGPNLVGWGPSLRLIALSFGKELLTWFLEWTHLEKGFQTRRAFQPLLEMDQREALRTLKVIRETCVPGWD | soluble
13 | MSQLINLPMDQILYLSTSDIKHHVHLQTIHTLMDIRANLADFKKIHKKLYPCHRSYIVNTDMIISVNKTNYEATLINGQVLPVSRMKIGKIAQIVEERGRLEHHHHHH | not soluble
14 | MGSDKIHHHHHHMKQTILDVDLLAFEQGTRFQQAAVVDGLMRSLGTGFVVTTSDLPSALLDEAYGMLNRFFALEATTKRQFNVPEAFGQTGYTDTLVETAAGEKLPDWKEMLNWAFPLPDNHPLRQRFPTLYPEQLLPEVAVPGITRVLQTFHQTIAELQCRVLRIIATGLGCHNDFFTDLVQDAPTLTRAIRYPPMSEAPAAGHMWAAAHGDINLITALPRATAPGLQVYIDGSWVDAIAPEGQVIVNSGLMLERISNGLIPTGWHRVLAPSQANLERLSVVQFCHPKPSTLLTPLSNCVNESHPQRFAGVMAADALEEVLYKIKLMA | not soluble
15 | SLISYCSDSGDENISCTKKMVVTVTVEGEQLPGEESLLFLNSATDMTVNNGTSVQFSPLRITTSRSAVRYRYPLFYVQNYNAKPYEATVKGSLLNQCNADFNADTATCGLAYDAAGKAIPYSQGFCCDCSMCQTLGLCQPDARANAACNVFGKYTTASCLRFAQRWYSGYTIGGYMTWYTVNLTLSRNVSDSGGAGAAEKVVMRLSPSNNGEVAGEGWDVMARIVGTYAPVDQPLDLTSRMLFAPAIPPNDARVQAGAAEWLLLPTNLVTLDGRECDKVGVSYEAFASQGNKCNLRPGSCLSSQLEDYRTADLQRIAAGNKGQYMATSFGDFNLENDAATSPYISYLAASPAATMISITVSADDLEYTVGLASGKIISTDMNKPTLQAGTADGVMTVMVRNTAAVTGRLVVGTLNCSDGVF | not soluble
16 | MGSDKIHHHHHHMPTVKLTKNITIMTGSPNTLIYDNRVVIDLGGKNSSVDINAEVQLATHGHADHIAGLLKKDAKIRYLPKEDYWSLTLMGRRAMIYGCSSKDSDIFTFDYVKENIESIDIEVRTSEIEVIKLPGHTPGHSGYIVDNVLYAGDAFFGEKVLEGFSVPFYTDFWTALESLNKVKELAKSVNNIVISHGPVYTNKNKMVSILESNIIYAQNLIGKILDMLSNNELTVEEIVVKLKQDLTPSNVLLNSVVVRSILFGLENIEYNVSQKGLVFRRRVH | not soluble
17 | MKIDLPPLRQFLNRLLALTIRMQNVIFERFELLLSQQIETAIANGIFEAGVETLRAERFTIESCESVYTHPDTGSVTNYLKVEQVQRNNIRTAVEMLEFAAKYQGQLMVNQKSSNAAVSIPTHSIFDCDGGVVPRVLLVRPQKETRVPVEQLESSTWQQVSAEEFVTAWSREVDELPRFTTDYLHLVTGILLPIWKILPQKNSRVFRLQTSDGQKILGRVVHASDIQTVTEQLGLKNKLLSPAELEHHHHHH | not soluble
18 | IVGGYNCKDGEVPWQALLINEENEGFCGGTILSEFYILTAAHCLYQAKRFKVRVGDRNTEQEEGGEAVHEVEVVIKHNRFTKETYDFDIAVLRLKTPITFRMNVAPASLPTAPPATGTKCLISGWGNTASSGADYPDELQCLDAPVLSQAKCEASYPGKITSNMFCVGFLEGGKDSCQGDSGGPVVCNGQLQGVVSWGDGCAQKNKPGVYTKVYNYVKWIKNTIAANS | soluble
19 | MSNEQLADLTQPQRDRLAFVELRVRFIGEIRRQDLVTRFGIQSAAASRDLALYKELAPGNIDYDSKGKSYVLGPDFRPVFDFPPERVLSWLTQGFGDGEPMRLKAWVASESPSRLTHPDLDVLASVTRAIHQECPLGIEYHSISSGRTEREIVPFALIDNGLRWHVRAFDRKSQEFRDFVITRIKRPVLIRDAEVQSHERSDQDIQWTRIVELEMVPHPDQPRPEITEMDYGMVRGSLRMKLRAATAGYILRQWSVDCSPDHSLRGYEFRLWLKDHLALYGVKNAVLAPGYRSPDQNKGEQ | soluble
20 | MASLWRAVIGGQNNNSEDYGGVEFWSNPERTGWLTKQGEYIKTWRRRWFVLKQGKLFWFKDSDVTRVSRPRGVVPVESCLTAKGAEDVLNKQNAFELSTRNETMYFIADSEKEKEDWINSIGRSIVQNSRSVTDSEIVDYDNKH | soluble
21 | MVQLSLSQVHQDQIYRHGERCYPEECCGLLLGKILIGENGHRHWQVVEVQPTENCWGDVEEFQQNNHQGNKLHYFAIDPKVLLSAQKDCRQKGLSIIGIFHSHPHGQPIPSEFDRAIAWPEYIYLIASGLEHHHHHH | not soluble
22 | MNLNPAHINEPVQKEFLSVIKEYERVIYKVCYLYTTRNATLGDLYQEVILNLWKAYPKFRKECKISTWIYRIALNTCISFIRKEKNVPEIVALTREADWMTEEKDELTEMLRQLYRMINQLGQLDKSIVLLYLEEKSYEEIAEITGLTVTNVATKLSRIKDKLKKMKKEE | not soluble
23 | MKNNADYIEMKVPAQPEYVGIIRLTLSGVASRMGYTYDEIEDLKIAVSEACTNAVQHAYKEDKNGEVSIRFGVFEDRLEVIVADEGDSFDFDQKQQDLGPYTPSHTVDQLSEGGLGLYLMETLMDEVRVQNHSGVTVAMTKYLNGERVDHDTTIKNYETN | soluble
